From patent publication US20180155451A1 (published 2018)

Tests used:
[1] = biological target: T1, FcγRIa extracellular domain with C-terminal His tag (human, UniProt P12314 16-292); experiment: SPR (Biacore), antibody captured on chip, soluble FcgR as analyte; experiment 1
T1 construct: extracellular domain; also called FcgRI; FcgRIa; not shown: His tag at the C terminus
Procedure: (§1) Antibodies of interest were analyzed for the interaction to FcgR according to the method described in Reference Example 8.
(§2) Analysis of interaction between obj ective antibody and the FcγR was carried out using Biacore T100 (GE Healthcare), Biacore T200, Biacore A100, and Biacore 4000. HBS-EP+ (GE Healthcare) was used as the running buffer, and the measurement temperature was set to 25° C. Chips produced by immobilizing the antigen peptide by the amine coupling method to a Series S sensor Chip CM5 (GE Healthcare), chips produced by allowing preliminarily biotinylated antigen peptides to interact with and immobilize onto a Series S Sensor Chip SA (certified) (GE Healthcare), chips produced by immobilizing Protein L (ACTIGEN, BioVision) to Series S Sencor Chip CM5 (GE Healthcare), or chips produced by immobilizing Protein A/G (Thermo Scientific) to Series S Sencor Chip CM5 (GE Healthcare) were used. Antibodies of interest were captured onto these chips, and allowed to interact to each FcγR diluted with running buffer. To regenerate and repeatedly use the chip, the antibodies captured onto the chip were washed off by reacting 10 mM glycine-HCl, pH 1.5.

[2] = biological target: T2, FcγRIIa R type extracellular domain with C-terminal His tag (human, UniProt P12318 34-217); experiment: as above
T2 construct: extracellular domain; also called FcgRIIa R; FcgRIIaR; not shown: His tag at the C terminus
T2 sequence (looked up): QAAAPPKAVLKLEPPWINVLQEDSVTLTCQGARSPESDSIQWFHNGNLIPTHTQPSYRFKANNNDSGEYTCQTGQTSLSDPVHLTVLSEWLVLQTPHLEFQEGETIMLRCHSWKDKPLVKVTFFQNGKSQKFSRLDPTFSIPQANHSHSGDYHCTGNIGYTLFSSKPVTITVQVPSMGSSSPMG
Procedure: as §1, §2

[3] = biological target: T3, FcγRIIa H type extracellular domain with C-terminal His tag (human, UniProt P12318 34-217); experiment: as above
T3 construct: extracellular domain; also called FcgRIIa H; FcgRIIaH; not shown: His tag at the C terminus
T3 sequence (looked up): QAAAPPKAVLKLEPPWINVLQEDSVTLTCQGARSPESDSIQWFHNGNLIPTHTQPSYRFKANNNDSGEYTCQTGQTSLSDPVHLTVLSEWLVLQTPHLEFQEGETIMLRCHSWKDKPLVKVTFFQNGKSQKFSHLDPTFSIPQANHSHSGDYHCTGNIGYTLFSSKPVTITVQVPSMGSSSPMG
Procedure: as §1, §2

[4] = biological target: T4, FcγRIIb extracellular domain with C-terminal His tag (human, UniProt P31994 43-217); experiment: as above
T4 construct: extracellular domain; also called FcgRIIb; 2b; not shown: His tag at the C terminus
T4 sequence (looked up): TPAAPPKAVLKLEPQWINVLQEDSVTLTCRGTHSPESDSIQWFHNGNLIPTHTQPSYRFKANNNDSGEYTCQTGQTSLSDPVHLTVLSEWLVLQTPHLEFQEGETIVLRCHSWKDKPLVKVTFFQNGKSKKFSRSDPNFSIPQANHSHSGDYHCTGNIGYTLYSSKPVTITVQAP
Procedure: as §1, §2

[5] = biological target: T5, FcγRIIIa F type extracellular domain with C-terminal His tag (human, UniProt P08637 17-208); experiment: as above
T5 construct: extracellular domain; also called FcgRIIIa F; FcgRIIIaF; not shown: His tag at the C terminus
Procedure: as §1, §2

[6] = biological target: T6, FcγRIIIa V type extracellular domain with C-terminal His tag (human, UniProt P08637 17-208); experiment: as above
T6 construct: extracellular domain; also called FcgRIIIa V; FcgRIIIaV; not shown: His tag at the C terminus
Procedure: as §1, §2

[7] = biological target: T1, FcγRIa extracellular domain with …; experiment: SPR (Biacore), antibody captured on chip, soluble FcgR as analyte; experiment 2
[8] = biological target: T2, FcγRIIa R type extracellular domain …; experiment: as above
[9] = biological target: T3, FcγRIIa H type extracellular domain …; experiment: as above
[10] = biological target: T4, FcγRIIb extracellular domain with …; experiment: as above
[11] = biological target: T5, FcγRIIIa F type extracellular domain …; experiment: as above
[12] = biological target: T6, FcγRIIIa V type extracellular domain …; experiment: as above
[13] = biological target: T1, FcγRIa extracellular domain with …; experiment: SPR (Biacore), antibody captured on chip, soluble FcgR as analyte; experiment 3
Procedure: as §1, §2

[14] = biological target: T2, FcγRIIa R type extracellular domain …; experiment: as above
Procedure: as §1, §2

[15] = biological target: T3, FcγRIIa H type extracellular domain …; experiment: as above
Procedure: as §1, §2

[16] = biological target: T4, FcγRIIb extracellular domain with …; experiment: as above
Procedure: as §1, §2

[17] = biological target: T5, FcγRIIIa F type extracellular domain …; experiment: as above
Procedure: as §1, §2

[18] = biological target: T6, FcγRIIIa V type extracellular domain …; experiment: as above
Procedure: as §1, §2

[19] = biological target: T1, FcγRIa extracellular domain with …; experiment: SPR (Biacore), antibody captured on chip, soluble FcgR as analyte; experiment 1 (second row of this antibody)
Procedure: as §1, §2

[20] = biological target: T2, FcγRIIa R type extracellular domain …; experiment: as above
Procedure: as §1, §2

[21] = biological target: T3, FcγRIIa H type extracellular domain …; experiment: as above
Procedure: as §1, §2

[22] = biological target: T4, FcγRIIb extracellular domain with …; experiment: as above
Procedure: as §1, §2

[23] = biological target: T5, FcγRIIIa F type extracellular domain …; experiment: as above
Procedure: as §1, §2

[24] = biological target: T6, FcγRIIIa V type extracellular domain …; experiment: as above
Procedure: as §1, §2

T5 sequence (P08637 17-208): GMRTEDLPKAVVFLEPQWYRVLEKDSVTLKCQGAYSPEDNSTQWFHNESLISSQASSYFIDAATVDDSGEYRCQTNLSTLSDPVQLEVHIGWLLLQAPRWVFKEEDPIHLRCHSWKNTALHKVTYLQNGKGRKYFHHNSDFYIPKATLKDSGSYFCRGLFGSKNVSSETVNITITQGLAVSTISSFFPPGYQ
T1 sequence (P12314 16-292): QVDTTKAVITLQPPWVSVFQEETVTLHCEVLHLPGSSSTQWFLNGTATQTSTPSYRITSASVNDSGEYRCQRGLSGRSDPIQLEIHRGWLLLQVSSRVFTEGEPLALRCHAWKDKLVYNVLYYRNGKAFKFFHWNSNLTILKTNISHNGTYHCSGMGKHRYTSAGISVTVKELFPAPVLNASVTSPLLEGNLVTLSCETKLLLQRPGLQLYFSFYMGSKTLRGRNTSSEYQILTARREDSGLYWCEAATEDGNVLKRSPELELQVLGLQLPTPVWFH
T6 sequence (P08637 17-208 F176V): as the sequence (P08637 17-208) above, with F160V counted along it

B1: H240-AK072/H240-BH076/L73-k0 (antibody, human IgG1, kappa)
heavy 1: QDQLVQSGAEVKKPGASVKVSCKASGFNIKDTYIQWVRQAPGQGLEWMGRIDPLRKQTKYREKFEGRVTITADTSTNTAYMELSSLRSEDTAVYYCVRSGREFDYWGQGTLVTVSSASTKGPSVFPLAPSSKSTSGGTAALGCLVKDYFPEPVTVSWNSGALTSGVHTFPAVLQSSGLYSLSSVVTVPSSSLGTQTYICNVNHKPSNTKVDKKVEPKSCDKTHTCPPCPAPEYYWGPSVFLFPPKPKDTLMISRTPEVTCVVVDVSDEEPEVKFNWYVDGVEVHNAKTKPREEQYNATYRVVSVLTVLHQDWLNGKEYKCKVSNKALPAPIEKTISKAKGQPREPQVYTLPPSRKEMTKNQVSLTCLVKGFYPSDIAVEWESNGQPENNYKTTPPVLDSDGSFFLYSKLTVDKSRWQQGNVFSCSVMHEALHNRYTQKSLSLSP
heavy 2: QDQLVQSGAEVKKPGASVKVSCKASGFNIKDTYIQWVRQAPGQGLEWMGRIDPLRKQTKYREKFEGRVTITADTSTNTAYMELSSLRSEDTAVYYCVRSGREFDYWGQGTLVTVSSASTKGPSVFPLAPSSKSTSGGTAALGCLVKDYFPEPVTVSWNSGALTSGVHTFPAVLQSSGLYSLSSVVTVPSSSLGTQTYICNVNHKPSNTKVDKKVEPKSCDKTHTCPPCPAPELLGGPSVFLFPPKPKDTLMISRTPEVTCVVVDVSHEEPEVKFNWYVDGVEVHNAKTKPREEQYNSTYRVVSVLTVLHQDWLNGKEYKCKVSNDALPMPIEETISKAKGQPREPQVYTLPPSREEMTKNQVSLTCLVKGFYPSDIAVEWESNGQPENNYKTTPPVLDSDGSFFLYSKLTVDKSRWQQGNVFSCSVMHEALHNHYTQESLSLSP
light: DIQMTQSPSSLSASVGDRVTITCRASQDIHKYIAWYQQKPGQAPRLLIQYTSTLQPGVPSRFSGSGSGTDYTFTISSLQPEDIATYYCLQYEQLRTFGGGTKVEIKRTVAAPSVFIFPPSDEQLKSGTASVVCLLNNFYPREAKVQWKVDNALQSGNSQESVTEQDSKDSTYSLSSTLTLSKADYEKHKVYACEVTHQGLSSPVTKSFNRGEC
notes: Heterodimerized anti-epiregulin (EREG) IgG1 antibody with two different H chains
Kd [1]: 0.11 nM | Kd [2]: 240 nM | Kd [3]: 72 nM | Kd [4]: 1300 nM | Kd [5]: 2.9 nM | Kd [6]: 0.99 nM | Kd [7]: 0.12 nM | Kd [8]: 280 nM | Kd [9]: 69 nM | Kd [10]: 1500 nM | Kd [11]: 3.7 nM | Kd [12]: 1.2 nM | Kd [13]: 0.11 nM | Kd [14]: 240 nM | Kd [15]: 79 nM | Kd [16]: 1400 nM | Kd [17]: 3.7 nM | Kd [18]: 1.2 nM

B2: H240-FA030/H240-FB059/L73-k0 (antibody, human IgG1, kappa)
heavy 1: QDQLVQSGAEVKKPGASVKVSCKASGFNIKDTYIQWVRQAPGQGLEWMGRIDPLRKQTKYREKFEGRVTITADTSTNTAYMELSSLRSEDTAVYYCVRSGREFDYWGQGTLVTVSSASTKGPSVFPLAPSSKSTSGGTAALGCLVKDYFPEPVTVSWNSGALTSGVHTFPAVLQSSGLYSLSSVVTVPSSSLGTKTYTCNVNHKPSNTKVDKKVEPKSCDKTHTCPPCPAPEYYWGPSVFLFPPKPKDTLMISRTPEVTCVVVDVSDEEPKVKFNWYVDGVEVHNAKTKPREEQYNATYRVVSVLTVLHQDWLNGKEYKCKVSNKALPAPIEKTISKAKGQPREPQVYTLPPSRKEMTKNQVSLTCLVKGFYPSDIAVEWESNGQPENNYKTTPPVLDSDGSFFLYSKLTVDKSRWQQGNVFSCSVMHEALHNRYTQKSLSLSP
heavy 2: QDQLVQSGAEVKKPGASVKVSCKASGFNIKDTYIQWVRQAPGQGLEWMGRIDPLRKQTKYREKFEGRVTITADTSTNTAYMELSSLRSEDTAVYYCVRSGREFDYWGQGTLVTVSSASTKGPSVFPLAPSSKSTSGETAALGCLVEDYFPEPVTVSWNSGALTSGVHTFPAVLQSSGLYSLSSVVTVPSSSLGTQTYICNVNHKPSNTKVDKKVEPKSCDKTHTCPPCPAPELLGGPSVFLFPPKPKDTLMISRTPEVTCVVVDVSHEEPEVQFNWYVDGVEVHNAETKPREEQYNSTYRVVSVLTVLHQDWLNGKEYKCKVSNDALPMPIEETISKAKGQPREPQVYTLPPSREEMTKNQVSLTCLVKGFYPSDIAVEWESNGQPENNYKTTPPVLDSDGSFFLYSKLTVDKSRWQQGNVFSCSVMHEALHNHYTQESLSLSP
light: DIQMTQSPSSLSASVGDRVTITCRASQDIHKYIAWYQQKPGQAPRLLIQYTSTLQPGVPSRFSGSGSGTDYTFTISSLQPEDIATYYCLQYEQLRTFGGGTKVEIKRTVAAPSVFIFPPSDEQLKSGTASVVCLLNNFYPREAKVQWKVDNALQSGNSQESVTEQDSKDSTYSLSSTLTLSKADYEKHKVYACEVTHQGLSSPVTKSFNRGEC
notes: Heterodimerized anti-EREG IgG1 antibody; A chain altered from H240-AK072, B chain altered from H240-BH076
Kd [1]: 0.12 nM | Kd [2]: 250 nM | Kd [3]: 85 nM | Kd [4]: 1500 nM | Kd [5]: 4.8 nM | Kd [6]: 1.4 nM | Kd [19]: 0.082 nM | Kd [20]: 260 nM | Kd [21]: 85 nM | Kd [22]: 1500 nM | Kd [23]: 3.9 nM | Kd [24]: 1.2 nM
